{"source": "patent US11549124B2", "about": "(priority 2017, dated 2023)", "molecules": {"B1": {"name": "HvNEP-1 (protein)", "chain": "MAMAIMNTLQCILFLMALIMTHQIPRATADADTPKVAMASSGAGSSFRLAAHHDHALSRSDDGFLHVQSRLDNLLPSEANVTTLRPPVASPLDMAFSVVVGLGSGKGRHDYNLKLDASGSLTWVQCKPCNPKQPQRGPLFDPKASSTFQQVAGTSQICHPPYPMEPAGQQCAFHLSGMGGMSVHGYVAMENLTMGPEAMKEFVFGCSHSTGHFNSHGTFAGVAAMGKMPTSLVMQVAARGQTRFSYCLFSGGASRHGFLRFGADVPSRSGLRTTKILPALDAHESQYYVSLVGISLDAKRLTGVRPEMFARQRGGEGGCVVDPGTPLTVLVREAYRVVEDAVWSDLRRNKAERVQREGYGLCVRKTAEIKRHLQSLSLHFAEETARLVVKPEQLFVAVESRLHGAALCLAMRPGERTVIGALQQVDTRFVYDLKDAKLSFASEPCSQDTAGVD", "modifications": "Hordeum vulgare"}}, "key": {"[1]": {"tested_on": "wheat TaPAPhy phytase (EC 3.1.3.26)", "assay": "Residual phytase activity after treatment with protease at different phytase:protease ratios", "settings": "phytase: protease ratio of 1:20", "from_the_text": "Values are mean of 3 independent technical replicates, and error bars represent means+±sd of replicates."}, "[2]": {"tested_on": "phytases in crude extract from F. graminearum 7775", "assay_type": "biochemical"}, "[3]": {"tested_on": "phytases in crude extract from F. culmorum 8984", "assay_type": "biochemical"}, "F. graminearum JCM9873": {"tested_on": "F. graminearum JCM9873", "assay_type": "cell-based"}, "[4]": {"tested_on": "TRI4, TRI5, TRI6 genes of F. graminearum JCM9873", "assay_type": "cell-based"}, "[5]": {"target": "Aspergillus ficuum phytase (Aspergillus niger, UniProt P34752)", "sequence (P34752 24-467)": "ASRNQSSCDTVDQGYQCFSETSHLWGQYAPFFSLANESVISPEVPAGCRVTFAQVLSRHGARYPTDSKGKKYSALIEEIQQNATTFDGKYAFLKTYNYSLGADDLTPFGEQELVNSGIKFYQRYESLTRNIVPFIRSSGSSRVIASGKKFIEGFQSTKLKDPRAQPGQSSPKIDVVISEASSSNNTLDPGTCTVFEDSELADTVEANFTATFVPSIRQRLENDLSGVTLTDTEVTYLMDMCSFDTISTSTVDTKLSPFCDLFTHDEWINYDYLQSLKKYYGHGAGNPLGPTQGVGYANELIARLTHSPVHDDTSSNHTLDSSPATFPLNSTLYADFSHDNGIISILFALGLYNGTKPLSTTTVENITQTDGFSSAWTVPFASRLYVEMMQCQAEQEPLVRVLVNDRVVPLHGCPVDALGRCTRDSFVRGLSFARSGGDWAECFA"}}, "data": [{"molecule": "pepsin", "values": [{"measurement": "phytase activity after exposure to protease", "setting": "[1]", "result": "unaffected"}]}, {"molecule": "B1", "values": [{"measurement": "inhibition of phytases in crude extract", "setting": "[2]", "result": "strongly inhibited"}, {"measurement": "inhibition of phytases in crude extract", "setting": "[3]", "result": "strongly inhibited"}, {"measurement": "15-ADON production by F. graminearum", "setting": "F. graminearum JCM9873", "result": "not detectable"}, {"measurement": "growth (biomass accumulation) of fungal culture", "setting": "F. graminearum JCM9873", "result": "strongly inhibited"}, {"measurement": "toxin production of fungal culture", "setting": "F. graminearum JCM9873", "result": "strongly inhibited"}, {"measurement": "expression of TRI4 gene", "setting": "[4]", "result": "suppressed"}, {"measurement": "expression of TRI5 gene", "setting": "[4]", "result": "suppressed"}, {"measurement": "expression of TRI6 gene", "setting": "[4]", "result": "suppressed"}, {"measurement": "pH of peak activity for inhibiting A. ficuum phytase", "setting": "[5]; 5 μg HvNEP-1, 2.5 U/ml phytase, 2 mM sodium phytate, 1 h, 37° C., pH 2.0 to 8.0", "result": 5.0}, {"measurement": "temperature of peak activity for inhibiting A. ficuum phytase", "setting": "[5]; 100 mM acetate buffer pH 5.0, 1 h", "result": 40, "unit": "°C"}]}]}
